Publication PMC6602930
Each block holds one substance with its values, some of them ahead of it.

Columns and labels:
[1] = target: Alexa 488-labelled, crosslinked recombinant histone octamer (H2A, H2B T112C-Alexa 488, H3 C110A, H4 T71C) (UniProt P06897); test: other fluorescence titration; 5 nM Alexa 488-labelled octamer titrated with NP (pentamer concentration); 150 mM NaCl, 1 mM DTT, 0.1 mg/ml BSA, 20 mM Tris-HCl pH 7.5; ligand-depleted model with two pentamers per octamer; apparent
[2] = target: Crosslinked histone octamer (dimethyl suberimidate) (not stated (chicken erythrocyte or recombinant histones)); test: native gel or EMSA; 8% native PAGE run from the positive to the negative electrode; fixed histones (10 µM H2A-H2B or H3-H4 dimers, 2.5 µM octamer) with increasing tail domain, 150 mM NaCl, 20 mM Tris-HCl pH 7.6, RT, 1 h
[3] = target: Histone H2A-H2B dimer, natural source (chicken erythrocyte chromatin) (chicken) (UniProt P02263); test: as above
[4] = target: Recombinant nucleoplasmin, full length (rNP) (X. laevis) (UniProt P05221); test: native gel or EMSA; NP alone on 4-16% native PAGE (Figs 2B and S3); pentamers to decamer

- Kd [1]: 0.04 nM
Substance: Egg nucleoplasmin (eNP) from X. laevis, natural hyperphosphorylated pentamer (from UniProt P05221 1-200) (natural protein)

- stoichiometry N (C-terminal tails per crosslinked octamer) [2]: 4
- stoichiometry N (tail domain/H2A-H2B dimer) [3]: 1
Substance: Phosphomimetic C-terminal tail domain of nucleoplasmin (rNP113–200-4D) (from UniProt P05221 113-200) (domain or fragment)

- Kd [1]: 0.27 nM
Substance: Recombinant nucleoplasmin lacking the last 50 residues (rNPΔ150–200) (from UniProt P05221 1-149) (domain or fragment)

- stoichiometry N [4]: 10
Substance: Recombinant nucleoplasmin, full length (rNP) (from UniProt P05221 1-200) (natural protein)
